± gives the standard deviation of the averaged measurements.
Tested on: ATP
Assay: switch fluorescence ratio, 500 uM ATP over buffer (Cy3 cluster intensity, sum of 5 cycles each) (fold (ratio)); higher = stronger signal-on switching upon ATP binding; sequences stand for … in TCGTCGGCAGCGTCAGATGTGTATAAGAGACAGTTTTTTTTTTTTTTTTTTTTTTTTT…TC
Details: aptamer strand: ATP DNA aptamer (quencher-CACCTGGGGGAGTATTGCGGAGGAAGG + anchor), 100 nM annealed; ATP concentration: 500 uM
Procedure, shortened: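 Per cluster, summed Cy3 intensity from the target cycles was divided by that from the buffer cycles to give the fluorescence ratio, then averaged per switch-domain sequence. Clusters outside 100-1000 RFU were excluded. The Cy3-labelled switching-strand clusters, on a modified Illumina MiSeq flow-cell, were annealed to 100 nM quencher-labelled ATP aptamer and imaged in selection buffer, then after 15 min with 500 uM ATP at 22 °C, for five cycles with NaOH stripping and re-annealing between them.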
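Also: ATP exposure 15 min at 22 °C before imaging.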

| Sequence | switch fluorescence ratio |
| --- | --- |
| AGACTAAAAG | 0.986 ± 0.015 |
| AGACTGAATT | 1.03 ± 0.02 |
| AGACTGATAC | 1.08 ± 0.025 |
| AGACTGGGCT | 1.01 ± 0.011 |
| AGACTGGGTT | 0.971 ± 0.012 |
| AGACTGTTAG | 0.976 ± 0.029 |
| AGACTTGTTA | 0.971 ± 0.021 |
| AGACTTTTGG | 0.987 ± 0.011 |
| AGAGAAAGGC | 1.08 ± 0.051 |
| AGAGAACGCT | 0.967 ± 0.035 |
| AGAGACTGAG | 1.045 ± 0.0026 |
| AGAGAGCGAA | 1.01 ± 0.022 |
| AGAGAGGACG | 1.02 ± 0.033 |
| AGAGAGTGAC | 0.981 ± 0.01 |
| AGAGAGTTAT | 1.02 ± 0.011 |
| AGAGAGTTTG | 1.01 ± 0.02 |
| AGAGATGTGG | 0.958 ± 0.036 |
| AGAGCATTTG | 1.01 ± 0.058 |
| AGAGCCACTG | 1.01 ± 0.024 |
| AGAGCCGGGA | 0.988 ± 0.043 |
| AGAGCGGA | 0.981 ± 0.011 |
| AGAGCGGCAA | 2.81 ± 2.4 |
| AGAGGAAAGG | 1.022 ± 0.0041 |

| Sequence | switch fluorescence ratio |
| --- | --- |
| AGAGGAGGGA | 0.9737 ± 0.0047 |
| AGAGGAGGGG | 1.01 ± 0.042 |
| AGAGGATGAT | 0.962 ± 0.013 |
| AGAGGATTTT | 1 ± 0.015 |
| AGAGGCAAGA | 1.16 ± 0.028 |
| AGAGGCAAGG | 1.0062 ± 0.0002 |
| AGAGGCCGAT | 1.022 ± 0.0012 |
| AGAGGCGTTA | 1.01 ± 0.025 |
| AGAGGGAATG | 0.975 ± 0.03 |
| AGAGGGACAT | 1.09 ± 0.1 |
| AGAGGGCATT | 0.967 ± 0.045 |
| AGAGGGGGGG | 0.999 ± 0.038 |
| AGAGGGGGTG | 0.96 ± 0.013 |
| AGAGGGGTTG | 0.972 ± 0.016 |
| AGAGGGTACG | 1.06 ± 0.017 |
| AGAGGGTCTC | 0.973 ± 0.058 |
| AGAGGGTTAC | 0.999 ± 0.036 |
| AGAGGGTTTT | 0.988 ± 0.031 |
| AGAGGTAAGG | 0.983 ± 0.019 |
| AGAGGTAGGG | 0.984 ± 0.035 |
| AGAGGTGTGC | 1.049 ± 0.01 |
| AGAGGTGTGG | 0.991 ± 0.05 |
| AGAGGTTAAG | 1.03 ± 0.08 |

| Sequence | switch fluorescence ratio |
| --- | --- |
| AGAGGTTATT | 0.9994 ± 0.0069 |
| AGAGTAAGTG | 0.962 ± 0.025 |
| AGAGTAGTGT | 0.99 ± 0.032 |
| AGAGTAGTTG | 0.9708 ± 0.0076 |
| AGAGTATGAA | 1 ± 0.032 |
| AGAGTATGGG | 1.01 ± 0.038 |
| AGAGTGCGGT | 1.011 ± 0.006 |
| AGAGTGGGGT | 0.962 ± 0.033 |
| AGAGTGGGTG | 0.978 ± 0.013 |
| AGAGTGGTGG | 0.9769 ± 0.0097 |
| AGAGTGTTTC | 0.943 ± 0.038 |
| AGAGTTATGC | 1.022 ± 0.01 |
| AGAGTTGAGA | 1.0102 ± 0.001 |
| AGAGTTGTTA | 0.996 ± 0.013 |
| AGAGTTTGAA | 1.02 ± 0.024 |
| AGAGTTTTCT | 0.9916 ± 0.0094 |
| AGATACGAGG | 1.03 ± 0.011 |
| AGATACTGCA | 1.05 ± 0.0087 |
| AGATAGAGTA | 1.006 ± 0.0033 |
| AGATAGATTG | 1 ± 0.04 |
| AGATAGGG | 0.96188 ± 0.00038 |
| AGATAGGGAT | 1.04 ± 0.053 |
| AGATATAATA | 1.02 ± 0.035 |

| Sequence | switch fluorescence ratio |
| --- | --- |
| AGATATAGCG | 1.029 ± 0.0076 |
| AGATATCATG | 0.973 ± 0.037 |
| AGATATGGTG | 1.01 ± 0.089 |
| AGATATGTGT | 0.998 ± 0.013 |
| AGATATTAGA | 1.017 ± 0.0048 |
| AGATATTGGG | 0.992 ± 0.068 |
| AGATCGCTTG | 0.975 ± 0.0019 |
| AGATCGTGGG | 1.04 ± 0.015 |
| AGATCTTGTG | 1 ± 0.022 |
| AGATGAATGC | 0.989 ± 0.011 |
| AGATGACGTT | 1.01 ± 0.046 |
| AGATGACTTT | 0.98 ± 0.034 |
| AGATGAGGGC | 1.04 ± 0.022 |
| AGATGAGTGT | 1 ± 0.02 |
| AGATGATCAG | 0.982 ± 0.02 |
| AGATGCATGG | 1.02 ± 0.025 |
| AGATGCCATG | 1.032 ± 0.0075 |
| AGATGCCGAC | 1.02 ± 0.054 |
| AGATGCGGTA | 1.01 ± 0.029 |
| AGATGCTGGT | 0.994 ± 0.015 |
| AGATGGGGGG | 1.02 ± 0.033 |
| AGATGGGGGT | 1.016 ± 0.0053 |
| AGATGGTAGG | 0.986 ± 0.023 |

| Sequence | switch fluorescence ratio |
| --- | --- |
| AGATGTAGTG | 0.9948 ± 0.0036 |
| AGATGTCTAC | 0.989 ± 0.018 |
| AGATTAGCGC | 0.9812 ± 0.0063 |
| AGATTATGGG | 0.974 ± 0.033 |
| AGATTGTTGG | 0.989 ± 0.019 |
| AGATTGTTTA | 0.981 ± 0.019 |
| AGATTTAGAG | 1.011 ± 0.0032 |
| AGATTTCGGC | 1.039 ± 0.0015 |
| AGATTTTCTG | 1.01 ± 0.025 |
| AGCAAAATGG | 1.0258 ± 0.00022 |
| AGCAAACTTG | 1.04 ± 0.049 |
| AGCAAAGAGC | 0.99 ± 0.037 |
| AGCAAATTCT | 1.16 ± 0.072 |
| AGCAACCTTT | 1.16 ± 0.039 |
| AGCACGCACA | 1.77 ± 0.06 |
| AGCACGTTTT | 1.01 ± 0.025 |
| AGCAGAGGAC | 0.971 ± 0.058 |
| AGCAGCGCGG | 1.04 ± 0.042 |
| AGCAGTGGAC | 1.23 ± 0.016 |
| AGCAGTTTTT | 0.996 ± 0.028 |
| AGCATGATGG | 1.04 ± 0.021 |
| AGCATGGCTG | 1.01 ± 0.001 |
| AGCATGGGAG | 0.991 ± 0.034 |

| Sequence | switch fluorescence ratio |
| --- | --- |
| AGCATGTCTG | 0.986 ± 0.01 |
| AGCATTTTCA | 1.24 ± 0.32 |
| AGCCAGAAGT | 0.991 ± 0.022 |
| AGCCAGGTGG | 1.27 ± 0.14 |
| AGCCATATTT | 1.04 ± 0.028 |
| AGCCATGGCT | 0.9927 ± 0.0099 |
| AGCCATGTGA | 1.01 ± 0.011 |
| AGCCATTTGT | 1.015 ± 0.0063 |
| AGCCCCTTAG | 1.002 ± 0.0065 |
| AGCCCTAAGG | 0.979 ± 0.045 |
| AGCCCTGGGG | 1.02 ± 0.011 |
| AGCCGGCTGC | 1.03 ± 0.024 |
| AGCCGGGTAT | 1.01 ± 0.016 |
| AGCCGGTTCC | 1.014 ± 0.0092 |
| AGCCTCTATA | 1.012 ± 0.0066 |
| AGCCTGCCCT | 1.067 ± 0.0053 |
| AGCCTGGGGA | 1.001 ± 0.0018 |
| AGCCTGGTGG | 1.05 ± 0.013 |
| AGCCTGTTTT | 0.9861 ± 0.0011 |
| AGCCTTGGGA | 1 ± 0.024 |
| AGCGAAAGGA | 1.01 ± 0.023 |
| AGCGAAATTT | 1.04 ± 0.023 |
| AGCGACGGAG | 0.966 ± 0.024 |

| Sequence | switch fluorescence ratio |
| --- | --- |
| AGCGAGAGGG | 0.974 ± 0.031 |
| AGCGAGGGGG | 1.03 ± 0.032 |
| AGCGAGTTGG | 0.958 ± 0.039 |
| AGCGCCGGGG | 1.03 ± 0.015 |
| AGCGCCTTTG | 0.9905 ± 0.0024 |
| AGCGCGCGGC | 0.998 ± 0.013 |
| AGCGCGGGGG | 1.002 ± 0.006 |
| AGCGGAGTTT | 0.984 ± 0.031 |
| AGCGGATGTG | 0.978 ± 0.027 |
| AGCGGATTAA | 1.016 ± 0.0017 |
| AGCGGCACAC | 1.073 ± 0.0095 |
| AGCGGCCCGG | 1.02 ± 0.017 |
| AGCGGGGGCT | 0.997 ± 0.045 |
| AGCGGGTTAA | 1.017 ± 0.0096 |
| AGCGGTAGGG | 1.022 ± 0.0082 |
| AGCGGTCGGC | 1.04 ± 0.018 |
| AGCGGTCTAT | 1.021 ± 0.005 |
| AGCGGTTCGC | 0.9931 ± 0.0056 |
| AGCGTCAGCC | 0.99 ± 0.05 |
